Key:
[1] = system: pre-pro-insulin glargine
[2] = target: pre-pro-insulin (human insulin)
[3] = target: pre-pro-insulin glargine; remark: listed apart in the source
[4] = target: pre-pro-insulin glulisine

Row | Molecule | by-product formation in pre-pro-insulin processing (HPLC) [1] | Yield (external standard) [%] [2] [%] | des-Thr [area %] [2] [area %] | Σ A0 compounds [area %] [2] [area %] | Σ Arg-Ins [area %] [2] [area %] | Σ pre-Arg-Ins [area %] [2] [area %] | Insulin glargine [area %] [3] [area %] | Yield (external standard) [%] [3] [%] | des-Thr [area %] [3] [area %] | pre-Insulin glargine [area %] [3] [area %] | Σ A0 compounds [area %] [3] [area %] | A0-Arg-insulin glulisine [area %] [4] [area %] | Arg-insulin-glulisine [area %] [4] [area %] | Yield (external standard) [%] [4] [%]
1 | Serine190Alanine human trypsin variant | High amounts of by-products, mainly B30-des-Thr- and A0-components, are formed during reaction | – | – | – | – | – | – | – | – | – | – | – | – | –
2 | Ser172Ala porcine trypsin (protein) IVGGYTCAANSIPYQVSLNSGSHFCGGSLINSQWVVSAAHCYKSRIQVRLGEHNIDVLEGNEQFINAAKIITHPNFNGNTLDNDIMLIKLSSPATLNSRVATVSLPRSCAAAGTECLISGWGNTKSSGSSYPSLLQCLKAPVLSDSSCKSSYPGQITGNMICVGFLEGGKDACQGDSGGPVVCNGQLQGIVSWGYGCAQKNKPGVYTKVCNYVNWIQQTIAAN | – | 96.5 | 3.3 | 4.1 | 82.5 | 0.9 | 55.5 | 62.9 | 2.6 | 0.4 | 5.1 | 1.2 | 39.2 | 100
3 | native, recombinant porcine trypsin (wildtype porcine pancreatic trypsin isoform I) (protein) IVGGYTCAANSIPYQVSLNSGSHFCGGSLINSQWVVSAAHCYKSRIQVRLGEHNIDVLEGNEQFINAAKIITHPNFNGNTLDNDIMLIKLSSPATLNSRVATVSLPRSCAAAGTECLISGWGNTKSSGSSYPSLLQCLKAPVLSDSSCKSSYPGQITGNMICVGFLEGGKDSCQGDSGGPVVCNGQLQGIVSWGYGCAQKNKPGVYTKVCNYVNWIQQTIAAN | – | 84.2 | 7.2 | 10.7 | 68.8 | 1.4 | 51.1 | 58.1 | 5.6 | 0.5 | 10.9 | 4.7 | 35.8 | 91.6

Source: patent US20100196953
